Experimental data published in US20220033484A1 (FAPON BIOTECH, published 2022).

B1: Mutation 1-38 (antibody, V domains shown)
VH: EVQLQQSGPELVKPGASVKMSCKASGYTFTIYVIHWVKQKPGQGLEWIGYIYPYIDGTKYNEKFKGKATLTVDKSSSTAFMELSSLTSEDSAVYYCARSGYGGYGLAWLAYWGQGTLVTVSA
VL: QAVVIQESALTTSPGETVTLTCRSSTGAVTTSQYANWVQEKPDHLFTGLIGGSNNRAPGVPARFSGSLIGDKAALTITGAQTEDEAIYFCALVYSNNWVFGGGTKLTVLG
notes: Built as m8
B2: Mutation 1-41 (antibody, V domains shown)
VH: EVQLQQSGPELVKPGASVKMSCKASGYTFTLYVIHWVKQKPGQGLEWIGYINPYIDGTKYNEKFKGKATLTVDKSSSTAFMELSSLTSEDSAVYYCARSGYGNYGLAWLAYWGQGTLVTVSA
VL: QAVVIQESALTTSPGETVTLTCRSSTGAVTTSNYANWVQEKPDHLFTGLIGGSQNRAPGVPARFSGSLIGDKAALTITGAQTEDEAIYFCALVYSNQWVFGGGTKLTVLG
notes: Built as m8
B3: Mutation 1-49 (antibody, V domains shown)
VH: EVQLQQSGPELVKPGASVKMSCKASGYTFTLYVLHWVKQKPGQGLEWIGYINPYLDGTKYNEKFKGKATLTVDKSSSTAFMELSSLTSEDSAVYYCARSGYGNYGLAWLAYWGQGTLVTVSA
VL: QAVVIQESALTTSPGETVTLTCRSSTGAVTTSQYANWVQEKPDHLFTGLIGGSQNRAPGVPARFSGSLIGDKAALTITGAQTEDEAIYFCALVYSNNWVFGGGTKLTVLG
notes: Built as m8
B4: Mutation 1-11 (antibody, V domains shown)
VH: EVQLQQSGPELVKPGASVKMSCKASGYTFTLYVIHWVKQKPGQGLEWIGYINPYIDGTKYNEKFKGKATLTVDKSSSTAFMELSSLTSEDSAVYYCARSGYGGYGLAWLAYWGQGTLVTVSA
VL: QAVVIQESALTTSPGETVTLTCRSSTGAVTTSNYANWVQEKPDHLFTGLIGGSQNRAPGVPARFSGSLIGDKAALTITGAQTEDEAIYFCALVYSNNWVFGGGTKLTVLG
notes: Built as m8
B5: Mutation 1-43 (antibody, V domains shown)
VH: EVQLQQSGPELVKPGASVKMSCKASGYTFTIYVLHWVKQKPGQGLEWIGYIYPYIDGTKYNEKFKGKATLTVDKSSSTAFMELSSLTSEDSAVYYCARSGYGNYGLAWLAYWGQGTLVTVSA
VL: QAVVIQESALTTSPGETVTLTCRSSTGAATTSQYANWVQEKPDHLFTGLIGGSQNRAPGVPARFSGSLIGDKAALTITGAQTEDEAIYFCALVYSNQWVFGGGTKLTVLG
notes: Built as m8
B6: Mutation 1-39 (antibody, V domains shown)
VH: EVQLQQSGPELVKPGASVKMSCKASGYTFTLYVVHWVKQKPGQGLEWIGYIQPYLDGTKYNEKFKGKATLTVDKSSSTAFMELSSLTSEDSAVYYCARSGYGQYGLAWLAYWGQGTLVTVSA
VL: QAVVIQESALTTSPGETVTLTCRSSTGAVTTSNYANWVQEKPDHLFTGLIGGSQNRAPGVPARFSGSLIGDKAALTITGAQTEDEAIYFCALVYSNQWVFGGGTKLTVLG
notes: Built as m8
B7: Mutation 1-55 (antibody, V domains shown)
VH: EVQLQQSGPELVKPGASVKMSCKASGYTFTIYVVHWVKQKPGQGLEWIGYIYPYIDGTKYNEKFKGKATLTVDKSSSTAFMELSSLTSEDSAVYYCARSGYGGYGLAWLAYWGQGTLVTVSA
VL: QAVVIQESALTTSPGETVTLTCRSSTGAVTTSQYANWVQEKPDHLFTGLIGGSQNRAPGVPARFSGSLIGDKAALTITGAQTEDEAIYFCALVYSNNWVFGGGTKLTVLG
notes: Built as m8
B8: Mutation 1-42 (antibody, V domains shown)
VH: EVQLQQSGPELVKPGASVKMSCKASGYTFTLYVVHWVKQKPGQGLEWIGYINPYLDGTKYNEKFKGKATLTVDKSSSTAFMELSSLTSEDSAVYYCARSGYGQYGLAWLAYWGQGTLVTVSA
VL: QAVVIQESALTTSPGETVTLTCRSSTGAVTTSNYANWVQEKPDHLFTGLIGGSNNRAPGVPARFSGSLIGDKAALTITGAQTEDEAIYFCALVYSNHWVFGGGTKLTVLG
notes: Built as m8
B9: Mutation 1-47 (antibody, V domains shown)
VH: EVQLQQSGPELVKPGASVKMSCKASGYTFTLYVIHWVKQKPGQGLEWIGYINPYLDGTKYNEKFKGKATLTVDKSSSTAFMELSSLTSEDSAVYYCARSGYGGYGLAWLAYWGQGTLVTVSA
VL: QAVVIQESALTTSPGETVTLTCRSSTGAATTSQYANWVQEKPDHLFTGLIGGSQNRAPGVPARFSGSLIGDKAALTITGAQTEDEAIYFCALVYSNHWVFGGGTKLTVLG
notes: Built as m8
B10: Mutation 1-48 (antibody, V domains shown)
VH: EVQLQQSGPELVKPGASVKMSCKASGYTFTIYVVHWVKQKPGQGLEWIGYIYPYIDGTKYNEKFKGKATLTVDKSSSTAFMELSSLTSEDSAVYYCARSGYGQYGLAWLAYWGQGTLVTVSA
VL: QAVVIQESALTTSPGETVTLTCRSSTGAATTSNYANWVQEKPDHLFTGLIGGSNNRAPGVPARFSGSLIGDKAALTITGAQTEDEAIYFCALVYSNQWVFGGGTKLTVLG
notes: Built as m8
B11: Mutation 1-53 (antibody, V domains shown)
VH: EVQLQQSGPELVKPGASVKMSCKASGYTFTIYVVHWVKQKPGQGLEWIGYIYPYIDGTKYNEKFKGKATLTVDKSSSTAFMELSSLTSEDSAVYYCARSGYGGYGLAWLAYWGQGTLVTVSA
VL: QAVVIQESALTTSPGETVTLTCRSSTGAVTTSNYANWVQEKPDHLFTGLIGGSQNRAPGVPARFSGSLIGDKAALTITGAQTEDEAIYFCALVYSNQWVFGGGTKLTVLG
notes: Built as m8
B12: Mutation 1-44 (antibody, V domains shown)
VH: EVQLQQSGPELVKPGASVKMSCKASGYTFTIYVIHWVKQKPGQGLEWIGYIQPYIDGTKYNEKFKGKATLTVDKSSSTAFMELSSLTSEDSAVYYCARSGYGGYGLAWLAYWGQGTLVTVSA
VL: QAVVIQESALTTSPGETVTLTCRSSTGAATTSNYANWVQEKPDHLFTGLIGGSNNRAPGVPARFSGSLIGDKAALTITGAQTEDEAIYFCALVYSNNWVFGGGTKLTVLG
notes: Built as m8
B13: Mutation 1-40 (antibody, V domains shown)
VH: EVQLQQSGPELVKPGASVKMSCKASGYTFTIYVLHWVKQKPGQGLEWIGYIQPYLDGTKYNEKFKGKATLTVDKSSSTAFMELSSLTSEDSAVYYCARSGYGNYGLAWLAYWGQGTLVTVSA
VL: QAVVIQESALTTSPGETVTLTCRSSTGAVTTSNYANWVQEKPDHLFTGLIGGSNNRAPGVPARFSGSLIGDKAALTITGAQTEDEAIYFCALVYSNNWVFGGGTKLTVLG
notes: Built as m8
B14: Mutation 1-46 (antibody, V domains shown)
VH: EVQLQQSGPELVKPGASVKMSCKASGYTFTIYVLHWVKQKPGQGLEWIGYINPYIDGTKYNEKFKGKATLTVDKSSSTAFMELSSLTSEDSAVYYCARSGYGNYGLAWLAYWGQGTLVTVSA
VL: QAVVIQESALTTSPGETVTLTCRSSTGAVTTSNYANWVQEKPDHLFTGLIGGSNNRAPGVPARFSGSLIGDKAALTITGAQTEDEAIYFCALVYSNNWVFGGGTKLTVLG
notes: Built as m8
B15: Mutation 1-54 (antibody, V domains shown)
VH: EVQLQQSGPELVKPGASVKMSCKASGYTFTIYVVHWVKQKPGQGLEWIGYINPYLDGTKYNEKFKGKATLTVDKSSSTAFMELSSLTSEDSAVYYCARSGYGQYGLAWLAYWGQGTLVTVSA
VL: QAVVIQESALTTSPGETVTLTCRSSTGAATTSNYANWVQEKPDHLFTGLIGGSNNRAPGVPARFSGSLIGDKAALTITGAQTEDEAIYFCALVYSNQWVFGGGTKLTVLG
notes: Built as m8
B16: Mutation 1-45 (antibody, V domains shown)
VH: EVQLQQSGPELVKPGASVKMSCKASGYTFTLYVVHWVKQKPGQGLEWIGYIQPYLDGTKYNEKFKGKATLTVDKSSSTAFMELSSLTSEDSAVYYCARSGYGQYGLAWLAYWGQGTLVTVSA
VL: QAVVIQESALTTSPGETVTLTCRSSTGAVTTSQYANWVQEKPDHLFTGLIGGSQNRAPGVPARFSGSLIGDKAALTITGAQTEDEAIYFCALVYSNQWVFGGGTKLTVLG
notes: Built as m8
B17: Mutation 1-50 (antibody, V domains shown)
VH: EVQLQQSGPELVKPGASVKMSCKASGYTFTIYVIHWVKQKPGQGLEWIGYIYPYIDGTKYNEKFKGKATLTVDKSSSTAFMELSSLTSEDSAVYYCARSGYGGYGLAWLAYWGQGTLVTVSA
VL: QAVVIQESALTTSPGETVTLTCRSSTGAATTSQYANWVQEKPDHLFTGLIGGSQNRAPGVPARFSGSLIGDKAALTITGAQTEDEAIYFCALVYSNHWVFGGGTKLTVLG
B18: Mutation 1-51 (antibody, V domains shown)
VH: EVQLQQSGPELVKPGASVKMSCKASGYTFTIYVVHWVKQKPGQGLEWIGYIQPYIDGTKYNEKFKGKATLTVDKSSSTAFMELSSLTSEDSAVYYCARSGYGQYGLAWLAYWGQGTLVTVSA
VL: QAVVIQESALTTSPGETVTLTCRSSTGAATTSQYANWVQEKPDHLFTGLIGGSNNRAPGVPARFSGSLIGDKAALTITGAQTEDEAIYFCALVYSNHWVFGGGTKLTVLG
notes: Built as m8
B19: Mutation 1-52 (antibody, V domains shown)
VH: EVQLQQSGPELVKPGASVKMSCKASGYTFTIYVVHWVKQKPGQGLEWIGYINPYLDGTKYNEKFKGKATLTVDKSSSTAFMELSSLTSEDSAVYYCARSGYGNYGLAWLAYWGQGTLVTVSA
VL: QAVVIQESALTTSPGETVTLTCRSSTGAATTSQYANWVQEKPDHLFTGLIGGSNNRAPGVPARFSGSLIGDKAALTITGAQTEDEAIYFCALVYSNNWVFGGGTKLTVLG
notes: Built as m8

target: T1, cTnI quality control product recombinant protein (human, UniProt P19429 2-210, limits assumed); assay: AMC sensor, antibody immobilised, cTnI in solution
T1 construct: treated as the same molecule; also called cTnI antigen; cardiac troponin I
T1 sequence (P19429 2-210 limits assumed): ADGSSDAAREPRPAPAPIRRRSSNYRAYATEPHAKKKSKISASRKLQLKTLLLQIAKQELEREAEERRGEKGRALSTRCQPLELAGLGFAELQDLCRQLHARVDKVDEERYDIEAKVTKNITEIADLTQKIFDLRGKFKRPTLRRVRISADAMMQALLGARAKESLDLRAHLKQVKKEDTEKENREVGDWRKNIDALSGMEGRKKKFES
Description: Operating process: it is equilibrated in Buffer 1 (PBST) for 60 s, the antibody is immobilized in an antibody solution for 300 s, incubated in Buffer 2 (PBST) for 180 s, bound in antigen solution for 420 s, dissociated in the Buffer 2 for 1200 s, 10 mM of GLY solution with pH 1.69 and Buffer 3 are used for sensor regeneration, and data is output. KD represents an equilibrium dissociation constant, namely the affinity; Kon represents a binding rate; and Kd is represents a dissociation rate.

Going from B1 to B2, the Kd rises from 0.254 nM to 7.89 nM (31-fold). The first binds more tightly here.

Compared with B3, B4 is 2.8-fold higher in Kd: 1.51 nM for the first, 4.23 nM for the second. The first binds more tightly here.

First: B5
Second: B6
The Kd of the first is 2.3-fold lower: 0.464 nM for the first, 1.08 nM for the second. The first binds more tightly here.

Compared with B7, B8 is 5.2-fold lower in Kd: 4.31 nM for the first, 0.821 nM for the second. The second binds more tightly here.

Going from B9 to B10, the Kd falls from 3.05 nM to 0.553 nM (5.5-fold). The second binds more tightly here.

B11 and B12 are within 1.5-fold of each other in Kd: 8.38 nM for the first, 6.56 nM for the second.

Compared with B13, B14 is 2.9-fold higher in Kd: 1.85 nM for the first, 5.41 nM for the second.

B15 and B16 are within 1.5-fold of each other in Kd: 7.78 nM for the first, 7.41 nM for the second.

Going from B17 to B18, the Kd rises from 4.61 nM to 7.3 nM (1.6-fold). The first binds more tightly here.

For B19, the Kd was 6.01 nM.

First: B1
Second: B2
The koff of the first is 38-fold lower: 1.72e-05 s⁻¹ for the first, 0.000647 s⁻¹ for the second.

B3 and B4 are within 1.5-fold of each other in koff: 0.000134 s⁻¹ for the first, 0.000142 s⁻¹ for the second.

B5 and B6 are within 1.5-fold of each other in koff: 3.38e-05 s⁻¹ for the first, 4.72e-05 s⁻¹ for the second.

Compared with B7, B8 is 3.5-fold lower in koff: 0.000239 s⁻¹ for the first, 6.8e-05 s⁻¹ for the second.

Compared with B9, B10 is 4.5-fold lower in koff: 0.000196 s⁻¹ for the first, 4.32e-05 s⁻¹ for the second.

Compared with B11, B12 is 2.6-fold lower in koff: 0.000543 s⁻¹ for the first, 0.000205 s⁻¹ for the second.

First: B13
Second: B14
The koff of the first is 5.4-fold lower: 4.05e-05 s⁻¹ for the first, 0.000217 s⁻¹ for the second.

B15 and B16 are within 1.5-fold of each other in koff: 0.000321 s⁻¹ for the first, 0.000286 s⁻¹ for the second.

B17 and B18 are within 1.5-fold of each other in koff: 0.000233 s⁻¹ for the first, 0.000223 s⁻¹ for the second.

For B19, the koff was 0.000492 s⁻¹.

B1 and B2 are within 1.5-fold of each other in kon: 67700 M⁻¹ s⁻¹ for the first, 82000 M⁻¹ s⁻¹ for the second.

First: B3
Second: B4
The kon of the first is 2.6-fold higher: 88400 M⁻¹ s⁻¹ for the first, 33500 M⁻¹ s⁻¹ for the second.

Compared with B5, B6 is 1.7-fold lower in kon: 72900 M⁻¹ s⁻¹ for the first, 43600 M⁻¹ s⁻¹ for the second.

B7 and B8 are within 1.5-fold of each other in kon: 55400 M⁻¹ s⁻¹ for the first, 82800 M⁻¹ s⁻¹ for the second.

B9 and B10 are within 1.5-fold of each other in kon: 64100 M⁻¹ s⁻¹ for the first, 78200 M⁻¹ s⁻¹ for the second.

Going from B11 to B12, the kon falls from 64800 M⁻¹ s⁻¹ to 31300 M⁻¹ s⁻¹ (2.1-fold).

First: B13
Second: B14
The kon of the first is 1.8-fold lower: 21900 M⁻¹ s⁻¹ for the first, 40100 M⁻¹ s⁻¹ for the second.

B15 and B16 are within 1.5-fold of each other in kon: 41300 M⁻¹ s⁻¹ for the first, 38600 M⁻¹ s⁻¹ for the second.

Compared with B17, B18 is 1.7-fold lower in kon: 50500 M⁻¹ s⁻¹ for the first, 30500 M⁻¹ s⁻¹ for the second.

With B19 the kon was 81800 M⁻¹ s⁻¹.
